Source: patent US20060141546A1, “Bacterial test method by glycated label binding” (priority 2002, published 2006)

Assays:
bacteria [1] = experiment: Saturation binding / Scatchard analysis of glycoprotein binding to bacteria; conditions: ALP to bacteria
From the text: There are several methods used to measure binding affinity. The methods of Lineweaver-Burke and Eadie-Hofstee are most popular. The data is used to create a Scatchard plot, where the X axis is the glycoprotein bound and the Y axis is glycoprotein bound divided by the free glycoprotein. From this graph the number of binding sites (also called Bmax, receptor number) is the X intercept and binding constant (also called affinity constant, Kd, or the equilibrium dissociation constant) is the negative reciprocal of the slope. Changes in slope reflect changes in the nature of binding sites and are often used to separate high affinity binding from low affinity binding sites. Commercially available software (GraphPad software Inc) exist to perform this analysis. Only high affinity binding was used in the instant experiments.
Experimentally, saturation binding experiments are used measure glycoprotein binding at equilibrium at various concentrations of the glycoprotein. The saturation curve is a first constructed to plot the concentration of glycoprotein ligand on the X axis versus the all glycoprotein bound on the cell expressed as concentration of glycoprotein bound/number of bacteria cells on the Y axis. […] This same data is next plotted as a Scatchard plot with the number of binding sites and binding constants determined for the pairs of glycoprotein and bacteria tested. […]

[2] = test system: Staphylococcus aureus (Sf) strains # 3 and #6; experiment: Bacteria assay by binding of intestinal ALP (Example 1, FIG. 8); conditions: gram positive, strains # 3 and #6, FIG. 8
Procedure: (§1) Bacterial cells ([…] to 10^8 cells/mL) were washed twice with water after centrifugation to separate the cells into a packed pellet from supernatant liquid. The washed cells in pellet form were suspended in 40 μL water and 10 μL of aqueous bovine intestinal alkaline phosphatase (ALP) was added (2 μg or […]). The mixture was left at room temperature for 30 minutes and then centrifuged, after which the bacterial pellets were washed with water 4-5 times (50 μL). All the washing supernatants were combined. A blank without cells was diluted in the same way. The final pellets were suspended in 50 μl water and both supernatants and cell suspensions were assayed for detection of ALP binding using 2.5 μl of 0.005 M para-nitrophenol phosphate (PNPP) in Tris or EPPS buffer at pH 7.5. The hydrolysis of the substrate results in yellow (PNPP) or blue-green (BCIP) color that is directly proportional to the amount of ALP bound to the bacteria. Alkaline phosphatase (ALP) activity was tested using common substrates such as BCIP (bromo-chloro-indolyl-phosphate) forming a blue/green color in Tris buffer, pH 7.5. After 10 minutes at room temperature the samples were read in a plate reader (Biotek Powerwave Absorbance Reader) at a wavelength of 405 nm. The parallel set of bacteria was run without addition of ALP as controls.

[3] = test system: Escherichia Coli (E. Coli); experiment: Bacteria assay by binding of intestinal ALP (Example 1, FIG. 8, Table 1)
Procedure: as §1

Citrobacter freundii = experiment: ALP binding compared to E. coli (Table 1)
Procedure: as §1
(§2) The bacteria used to illustrate the invention represent the extremes of gram positive (S. facaelis) and gram negative (E. coli) bacteria. […] The nature of the difference in the cell walls is greatest between the gram negative and positive forms of bacteria.

Citrobacter koseri = experiment: ALP binding compared to E. coli (Table 1)
Procedure: as §1, §2

Diphtheroids (gnb) = experiment: ALP binding compared to E. coli (Table 1)
Procedure: as §1, §2

Klebsiella oxytoca = experiment: ALP binding compared to E. coli (Table 1)
Procedure: as §1, §2

Klebsiella pneumoniae = experiment: ALP binding compared to E. coli (Table 1)
Procedure: as §1, §2

Morganella morganii = experiment: ALP binding compared to E. coli (Table 1)
Procedure: as §1, §2

Proteus mirabilis = experiment: ALP binding compared to E. coli (Table 1)
Procedure: as §1, §2

Pseudomonas aeruginosa = experiment: ALP binding compared to E. coli (Table 1)
Procedure: as §1, §2

Serratia marcescens = experiment: ALP binding compared to E. coli (Table 1)
Procedure: as §1, §2

bacteria [4] = experiment: Effect of divalent cations on ALP binding to bacteria (Example 7, Table 5, FIG. 12)
Procedure: Bacterial cells (1 to 4.5×10^7 cells/mL) were washed twice with water after centrifugation to separate cells into a packed pellet from the supernatant liquid. The washed cells in pellet form were suspended in 20 μL of EPPS buffer (50 mM at pH 8.0) and 30 μL of water. […]
The mixture of glycated protein and bacterial cells was left at 25° C. for 15 minutes. The mixture was then centrifuged at 30,000 rpm for 30 minutes after which the bacterial cells formed a pellet at the bottom of the tube and were washed with water 4-5 times (50 μL). Centrifugation allows separation of glycoprotein bound to the bacteria cells from unbound glycated protein(s).
After washing, the bacterial pellets were suspended in 50 μL of borate buffer (25 mM at pH 9.0). A 5 μL aliquot of the suspension was assayed for detection of ALP binding by adding 5 μL of para-nitrophenol phosphate (PNPP, 100 mM), 50 μL sodium borate buffer (25 mM at pH 9.0) and 140 μL of water. […] The color was read at 405 nm using an ELISA plate reader between 15-30 min; the absorbance is directly proportional to the amount of ALP bound to the bacteria cell.

B1: ALP: bovine intestinal alkaline phosphatase, glycoprotein enzyme that binds bacteria and serves as label (protein, UniProt P19111 20-506, looked up)
Intestinal-type alkaline …: LVPVEEEDPAFWNRQAAQALDVAKKLQPIQTAAKNVILFLGDGMGVPTVTATRILKGQMNGKLGPETPLAMDQFPYVALSKTYNVDRQVPDSAGTATAYLCGVKGNYRTIGVSAAARYNQCKTTRGNEVTSVMNRAKKAGKSVGVVTTTRVQHASPAGAYAHTVNRNWYSDADLPADAQMNGCQDIAAQLVNNMDIDVILGGGRKYMFPVGTPDPEYPDDASVNGVRKRKQNLVQAWQAKHQGAQYVWNRTALLQAADDSSVTHLMGLFEPADMKYNVQQDHTKDPTLQEMTEVALRVVSRNPRGFYLFVEGGRIDHGHHDDKAYMALTEAGMFDNAIAKANELTSELDTLILVTADHSHVFSFGGYTLRGTSIFGLAPSKALDSKSYTSILYGNGPGYALGGGSRPDVNDSTSEDPSYQQQAAVPQASETHGGEDVAVFARGPQAHLVHGVEEETFVAHIMAFAGCVEPYTDCNLPAPTTATSIPD
binding constant (bacteria [1]; Scatchard analysis, high affinity binding): 5×10^+6
number of binding sites (bacteria [1]; estimated from the Scatchard analysis): 590
ALP binding to bacteria (ALP activity of suspended cells after ALP treatment and washings) [2]: found to bind the ALP
ALP binding relative to E. coli ([3]; Escherichia coli): 100%
ALP binding to bacteria (ALP activity of suspended cells after ALP treatment and washings) ([3]; gram negative, strains # 9 and 14, FIG. 8): found to bind the ALP
ALP binding relative to E. coli (Citrobacter freundii): 89%
ALP binding relative to E. coli (Citrobacter koseri): 93%
ALP binding relative to E. coli (Diphtheroids (gnb)): 91%
ALP binding relative to E. coli (Klebsiella oxytoca): 111%
ALP binding relative to E. coli (Klebsiella pneumoniae): 105%
ALP binding relative to E. coli (Morganella morganii): 95%
ALP binding relative to E. coli (Proteus mirabilis): 104%
ALP binding relative to E. coli (Pseudomonas aeruginosa): 99%
ALP binding relative to E. coli (Serratia marcescens): 101%
O.D. at 405 nm, With ALP (bacteria [4]; No. cation): 0.30 O.D.
bacteria concentration at which ALP binding could be monitored (bacteria [4]; different strains of bacteria, 1 mM Zn^2+, FIG. 12): 10^5
